The text below walks through data of US20190015483A1 (CSL BEHRING RECOMBINANT FACILITY, published 2019).

The chains are these.
T1: recombinant Factor VIII (CSL627, rVIII-SingleChain) (Homo sapiens (Human), UniProt P00451 20-2351)
T1 construct: also called FVIII
T1 sequence: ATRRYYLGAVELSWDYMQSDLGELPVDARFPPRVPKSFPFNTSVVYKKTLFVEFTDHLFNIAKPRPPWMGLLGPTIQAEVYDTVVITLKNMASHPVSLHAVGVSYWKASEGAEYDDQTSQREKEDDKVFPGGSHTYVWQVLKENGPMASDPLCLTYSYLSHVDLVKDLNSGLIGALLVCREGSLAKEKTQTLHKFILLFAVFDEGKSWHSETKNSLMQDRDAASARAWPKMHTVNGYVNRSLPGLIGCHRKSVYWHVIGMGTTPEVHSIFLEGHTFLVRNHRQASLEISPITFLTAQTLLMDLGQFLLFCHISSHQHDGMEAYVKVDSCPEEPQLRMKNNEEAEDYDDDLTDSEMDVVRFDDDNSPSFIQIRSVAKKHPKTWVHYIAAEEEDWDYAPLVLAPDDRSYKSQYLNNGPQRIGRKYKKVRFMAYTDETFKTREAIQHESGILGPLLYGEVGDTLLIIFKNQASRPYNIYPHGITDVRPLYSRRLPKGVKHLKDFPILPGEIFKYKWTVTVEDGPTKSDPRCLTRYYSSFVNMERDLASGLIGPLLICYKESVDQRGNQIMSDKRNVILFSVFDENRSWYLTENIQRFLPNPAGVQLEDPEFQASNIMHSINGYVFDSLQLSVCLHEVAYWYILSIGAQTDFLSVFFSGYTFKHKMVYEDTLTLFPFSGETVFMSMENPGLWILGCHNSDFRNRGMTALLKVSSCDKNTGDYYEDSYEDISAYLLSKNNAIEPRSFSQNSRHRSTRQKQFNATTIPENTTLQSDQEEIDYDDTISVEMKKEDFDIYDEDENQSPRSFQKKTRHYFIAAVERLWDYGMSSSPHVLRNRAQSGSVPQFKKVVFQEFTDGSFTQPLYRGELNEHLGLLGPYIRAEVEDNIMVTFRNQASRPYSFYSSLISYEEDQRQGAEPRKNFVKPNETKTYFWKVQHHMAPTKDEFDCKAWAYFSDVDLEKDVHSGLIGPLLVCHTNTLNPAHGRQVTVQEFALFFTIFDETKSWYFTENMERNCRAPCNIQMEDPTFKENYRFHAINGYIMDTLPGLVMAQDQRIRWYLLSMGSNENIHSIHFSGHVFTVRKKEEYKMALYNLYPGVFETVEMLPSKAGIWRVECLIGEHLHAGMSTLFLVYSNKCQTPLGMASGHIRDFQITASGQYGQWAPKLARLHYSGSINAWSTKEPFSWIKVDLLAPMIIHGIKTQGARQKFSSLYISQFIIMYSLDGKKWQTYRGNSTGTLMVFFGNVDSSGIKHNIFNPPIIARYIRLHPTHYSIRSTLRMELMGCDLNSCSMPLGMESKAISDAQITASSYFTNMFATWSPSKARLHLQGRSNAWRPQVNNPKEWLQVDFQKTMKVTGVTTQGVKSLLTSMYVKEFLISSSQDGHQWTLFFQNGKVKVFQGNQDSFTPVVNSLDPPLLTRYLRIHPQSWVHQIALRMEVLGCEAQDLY

B1: Hu-vWF[764-1270]-8His S764P-S766N (other)
chain: PLNCRPPMVKLVCPADNLRAEGLECTKTCQNYDLECMSMGCVSGCLCPPGMVRHENRCVALERCPCFHQGKEYAPGETVKIGCNTCVCRDRKWNCTDHVCDATCSTIGMAHYLTFDGLKYLFPGECQYVLVQDYCGSNPGTFRILVGNKGCSHPSVKCKKRVTILVEGGEIELFDGEVNVKRPMKDETHFEVVESGRYIILLLGKALSVVWDRHLSISVVLKQTYQEKVCGLCGNFDGIQNNDLTSSNLQVEEDPVDFGNSWKVSSQCADTRKVPLDSSPATCHNNIMKQTMVDSSCRILTSDVFQDCNKLVDPEPYLDVCIYDTCSCESIGDCACFCDTIAAYAHVCAQHGKVVTWRTATLCPQSCEERNLRENGYECEWRYNSCAPACQVTCQHPEPLACPVQCVEGCHAHCPPGKILDELLQTCVDPEDCPVCEVAGRRFASGKKVTLNPSDPEHCQICHCDVVNLTCEACQEPGGLVVPPTDAPVSPTTLYVEDISEPPLHDFHHHHHHHH
B2: Hu-vWF[764-1270]-8His S764P-S766T (other)
chain: PLTCRPPMVKLVCPADNLRAEGLECTKTCQNYDLECMSMGCVSGCLCPPGMVRHENRCVALERCPCFHQGKEYAPGETVKIGCNTCVCRDRKWNCTDHVCDATCSTIGMAHYLTFDGLKYLFPGECQYVLVQDYCGSNPGTFRILVGNKGCSHPSVKCKKRVTILVEGGEIELFDGEVNVKRPMKDETHFEVVESGRYIILLLGKALSVVWDRHLSISVVLKQTYQEKVCGLCGNFDGIQNNDLTSSNLQVEEDPVDFGNSWKVSSQCADTRKVPLDSSPATCHNNIMKQTMVDSSCRILTSDVFQDCNKLVDPEPYLDVCIYDTCSCESIGDCACFCDTIAAYAHVCAQHGKVVTWRTATLCPQSCEERNLRENGYECEWRYNSCAPACQVTCQHPEPLACPVQCVEGCHAHCPPGKILDELLQTCVDPEDCPVCEVAGRRFASGKKVTLNPSDPEHCQICHCDVVNLTCEACQEPGGLVVPPTDAPVSPTTLYVEDISEPPLHDFHHHHHHHH
B3: Hu-vWF[764-1270]-8His S764P-S766Q (other)
chain: PLQCRPPMVKLVCPADNLRAEGLECTKTCQNYDLECMSMGCVSGCLCPPGMVRHENRCVALERCPCFHQGKEYAPGETVKIGCNTCVCRDRKWNCTDHVCDATCSTIGMAHYLTFDGLKYLFPGECQYVLVQDYCGSNPGTFRILVGNKGCSHPSVKCKKRVTILVEGGEIELFDGEVNVKRPMKDETHFEVVESGRYIILLLGKALSVVWDRHLSISVVLKQTYQEKVCGLCGNFDGIQNNDLTSSNLQVEEDPVDFGNSWKVSSQCADTRKVPLDSSPATCHNNIMKQTMVDSSCRILTSDVFQDCNKLVDPEPYLDVCIYDTCSCESIGDCACFCDTIAAYAHVCAQHGKVVTWRTATLCPQSCEERNLRENGYECEWRYNSCAPACQVTCQHPEPLACPVQCVEGCHAHCPPGKILDELLQTCVDPEDCPVCEVAGRRFASGKKVTLNPSDPEHCQICHCDVVNLTCEACQEPGGLVVPPTDAPVSPTTLYVEDISEPPLHDFHHHHHHHH
B4: Hu-vWF[764-1270]-8His S764P-S766V (other)
chain: PLVCRPPMVKLVCPADNLRAEGLECTKTCQNYDLECMSMGCVSGCLCPPGMVRHENRCVALERCPCFHQGKEYAPGETVKIGCNTCVCRDRKWNCTDHVCDATCSTIGMAHYLTFDGLKYLFPGECQYVLVQDYCGSNPGTFRILVGNKGCSHPSVKCKKRVTILVEGGEIELFDGEVNVKRPMKDETHFEVVESGRYIILLLGKALSVVWDRHLSISVVLKQTYQEKVCGLCGNFDGIQNNDLTSSNLQVEEDPVDFGNSWKVSSQCADTRKVPLDSSPATCHNNIMKQTMVDSSCRILTSDVFQDCNKLVDPEPYLDVCIYDTCSCESIGDCACFCDTIAAYAHVCAQHGKVVTWRTATLCPQSCEERNLRENGYECEWRYNSCAPACQVTCQHPEPLACPVQCVEGCHAHCPPGKILDELLQTCVDPEDCPVCEVAGRRFASGKKVTLNPSDPEHCQICHCDVVNLTCEACQEPGGLVVPPTDAPVSPTTLYVEDISEPPLHDFHHHHHHHH
B5: Hu-vWF[764-1270]-8His S764P-S766R (other)
chain: PLRCRPPMVKLVCPADNLRAEGLECTKTCQNYDLECMSMGCVSGCLCPPGMVRHENRCVALERCPCFHQGKEYAPGETVKIGCNTCVCRDRKWNCTDHVCDATCSTIGMAHYLTFDGLKYLFPGECQYVLVQDYCGSNPGTFRILVGNKGCSHPSVKCKKRVTILVEGGEIELFDGEVNVKRPMKDETHFEVVESGRYIILLLGKALSVVWDRHLSISVVLKQTYQEKVCGLCGNFDGIQNNDLTSSNLQVEEDPVDFGNSWKVSSQCADTRKVPLDSSPATCHNNIMKQTMVDSSCRILTSDVFQDCNKLVDPEPYLDVCIYDTCSCESIGDCACFCDTIAAYAHVCAQHGKVVTWRTATLCPQSCEERNLRENGYECEWRYNSCAPACQVTCQHPEPLACPVQCVEGCHAHCPPGKILDELLQTCVDPEDCPVCEVAGRRFASGKKVTLNPSDPEHCQICHCDVVNLTCEACQEPGGLVVPPTDAPVSPTTLYVEDISEPPLHDFHHHHHHHH
B6: Hu-vWF[764-1270]-8His S764P-S766P (other)
chain: PLPCRPPMVKLVCPADNLRAEGLECTKTCQNYDLECMSMGCVSGCLCPPGMVRHENRCVALERCPCFHQGKEYAPGETVKIGCNTCVCRDRKWNCTDHVCDATCSTIGMAHYLTFDGLKYLFPGECQYVLVQDYCGSNPGTFRILVGNKGCSHPSVKCKKRVTILVEGGEIELFDGEVNVKRPMKDETHFEVVESGRYIILLLGKALSVVWDRHLSISVVLKQTYQEKVCGLCGNFDGIQNNDLTSSNLQVEEDPVDFGNSWKVSSQCADTRKVPLDSSPATCHNNIMKQTMVDSSCRILTSDVFQDCNKLVDPEPYLDVCIYDTCSCESIGDCACFCDTIAAYAHVCAQHGKVVTWRTATLCPQSCEERNLRENGYECEWRYNSCAPACQVTCQHPEPLACPVQCVEGCHAHCPPGKILDELLQTCVDPEDCPVCEVAGRRFASGKKVTLNPSDPEHCQICHCDVVNLTCEACQEPGGLVVPPTDAPVSPTTLYVEDISEPPLHDFHHHHHHHH
B7: Hu-vWF[764-1270]-8His S764P-S766W (other)
chain: PLWCRPPMVKLVCPADNLRAEGLECTKTCQNYDLECMSMGCVSGCLCPPGMVRHENRCVALERCPCFHQGKEYAPGETVKIGCNTCVCRDRKWNCTDHVCDATCSTIGMAHYLTFDGLKYLFPGECQYVLVQDYCGSNPGTFRILVGNKGCSHPSVKCKKRVTILVEGGEIELFDGEVNVKRPMKDETHFEVVESGRYIILLLGKALSVVWDRHLSISVVLKQTYQEKVCGLCGNFDGIQNNDLTSSNLQVEEDPVDFGNSWKVSSQCADTRKVPLDSSPATCHNNIMKQTMVDSSCRILTSDVFQDCNKLVDPEPYLDVCIYDTCSCESIGDCACFCDTIAAYAHVCAQHGKVVTWRTATLCPQSCEERNLRENGYECEWRYNSCAPACQVTCQHPEPLACPVQCVEGCHAHCPPGKILDELLQTCVDPEDCPVCEVAGRRFASGKKVTLNPSDPEHCQICHCDVVNLTCEACQEPGGLVVPPTDAPVSPTTLYVEDISEPPLHDFHHHHHHHH

The target in the test is T1, recombinant Factor VIII (CSL627, …). The experiment in a line: SPR, anti-His capture. A digest of the protocol: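 Anti-His antibody (14,000 RU) captures each mutant from culture supernatant to 40-150 RU. Single-concentration FVIII injection (1 nM) over 5 min, then dissociation tracked for 5 min. Kinetics derive from 1:1 fitting after double referencing.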
(SPR reads the build-up and loss of mass on a sensor chip optically.)
Take B1: the Kd (as a rule, the constant that tells how readily two partners part at equilibrium) came to 0.0104 nM; the koff (commonly a measure of how fast the partners let go of each other) stood at 9.14e-05 s⁻¹; the kon (commonly a measure of how fast the partners come together) was found to be 8.82e+06 M⁻¹ s⁻¹.
For B2 the same measures were 0.0116 nM, 0.000105 s⁻¹ and 9.01e+06 M⁻¹ s⁻¹.
For B3 the same measures were 0.0102 nM, 0.000123 s⁻¹ and 1.2e+07 M⁻¹ s⁻¹.
On the same counts, the results for B4 are 0.0956 nM, 7.82e-05 s⁻¹ and 819000 M⁻¹ s⁻¹.
With B5, the Kd was 0.00921 nM, the koff is 0.000119 s⁻¹ and the kon was 1.29e+07 M⁻¹ s⁻¹.
Turning to B6, the Kd was found to be 0.0848 nM, the koff was determined as 0.00217 s⁻¹ and the kon was found to be 2.56e+07 M⁻¹ s⁻¹.
For B7 the same measures were 0.00727 nM, 8e-05 s⁻¹ and 1.1e+07 M⁻¹ s⁻¹.
